Experiment: soluble fraction after stress (log2 fold change); higher = more stays soluble; pooled small domains, quantitative proteomics
Conditions: stress: pH 4
Summary of the method: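 Pooled custom libraries of small protein domains were stressed at pH 4 and then measured by high-throughput quantitative proteomics. The fold change in the amount of each domain that stays soluble after the acid stress serves as a measure of aggregation propensity. Fold changes are given on a log2 scale, and higher values mean more of the domain stayed soluble.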

Row | Sequence | soluble fraction (log2)
1 | HMEELLVAVKADGSIWADGRPITPDGLASFIDSKPADAVLNLAVDKKAPFAAFVKVVDVAKEKKSGRFVIR | -0.141
2 | HMEELPIIVAQRFLNIFRQLHIFSDERREAFNKMLLELPPEVKSIFQSLPGGTPLQEYMEDLEQKSK | -0.262
3 | HMEELTPLQKYVFDYESDISDEVDMRAIKGLENANDVYDYYANVRGWEGDPDLEDDLDNIYRQVKARFA | -1.2
4 | HMEEMTIRQKRTMIFFIEATKHILQEDGYDHLTIREIAQRAGYNAATLYHYFRDLDELIIYGSVG | -0.602
5 | HMEEPEELYRVKILIYNLLVRNGPGILYTRLRRADYPGEYGIYEEKNGYGKISATLSEWISLNTEYVQRLD | -0.378
6 | HMEEVYVPDIRDKSISDAKKILSQMGLKYRIEGEGYDDSTVIKDQTPKPGALLAKDSVVIAYINE | -0.0728
7 | HMEEYLENLTQSKLLHMLDQLSPAYKTVFTLFVLDELSHEEISKMLNISIGTSKSNLFRARKVMRVLMESE | -0.283
8 | HMEFDIDAAIHAALEPQAVMRAWFGHEGREYPEDFGVVFFRGWESFTHQEKVEAVRDAKKVLDRAVR | -1.17
9 | HMEFDSLINYEVKKKETLFSISKKFKIEINDLLSFNTELKNNKLKKNSIIIIPLKKKIVESQNFEKQKIID | -0.719
10 | HMEFENIEQRKQYWSDLYRELKAGQDAYAKELKKGTEGYTQDELDILKEFTDEAKKQMEAAGVEATDEFAS | -0.176
11 | HMEFLLAIQPFVLLTDHANLTFLREQTDSMMKRIQINISGFEIEFRYVPGLTNILPDKMSRV | -0.199
12 | HMEFQEQLYRLRKQAGLSQEELSHIIGVSRQAVQKWEAGSARPDLDNLIALASHFKLSLDQLVGLT | -0.125
13 | HMEFQSIGGKIRIGREREHLTQAELAQKLSVTRQAVSNWERDKTLPDIYMIREIAEIFGLTLDEFMEGAKK | 0.0806
14 | HMEGDAFAFTGDIQKDLLSITAVHPMRREAVDALIAKAGASWAIVEKLLAHGELTEAKHDGHLFYLRKF | -0.354
15 | HMEGIAEILPASVRQKYGLIGLYDALRGLHFPGNMEEIKAARQRLAFEDTLMFSLTLSMMQYS | -0.0837
16 | HMEGIAYDINTAPEHIDLKAEDMMATFNIGKTALWRWVKQKILPPPYEYRSQAAHWTIGQIRDWKTA | -0.417
17 | HMEGLDDKTKIILFAGDKKEQEYSLADLKSKLNITENLTESELIKLLEKQGYVLDVNANNEFMFKKD | 0.22
18 | HMEGNFFADIRQELMRELDQEAEWSDVQILEKIDDLVLLRTRRSSLTVNEKEQLRKELFYSVRK | -0.394
19 | HMEGRTVMATTAVNVRSGPGTSYKILGVLYPGHTAQQIGNTRYGWAQVTWKGHTAYIAARYLRDS | 0.301
20 | HMEGSLQEDKVKEYQDRFKEELSNDLNTANSITVLYDLIKDDTLNGTTKRYLIEDFDKILSLDLIKE | -0.854
21 | HMEGSVTVMVNGESVTMTGKQNYIFVDVFDWYSFDLSAGKGRAIATLVNGKEAEFSQPLANGDNIELYWKE | -1.42
22 | HMEGTAAAVALKGLMEQSGVDLREVMAAVESRGYYPKGTPFENYDPAFVSGVLVGAWDQVYKMILDQRPIP | -1.1
23 | HMEGVSPQTVQEHIRRFIAAEDPASPLSDEALREALGNLGINASRRTVAKYRGEMGIPSSAQRKR | 0.00892

Row | Sequence | soluble fraction (log2)
24 | HMEGVSSESVKEMLKSIIDGEDPHNPVSDQRITDILNSRGINISRRTVAKYRDELGIASSSRRKRY | 0.112
25 | HMEGYLYLSESQNELILKNLKTPLKYNLYNASGKLIKKGNIKNTLDISELPKGVYIFTSSDNSFSKKFLKT | 0.276
26 | HMEHAETDTRERILVVAERLFRQLGYQKTTVADIAKELRMSPANVYRFFDSKKSIHEGVARTL | 0.275
27 | HMEHETTQLELNAPGQRLDAALALALPDTSRAQIQQWIKQGLVTDQAGTALLQASLKLKSPLNVVLQRPI | 0.0662
28 | HMEHIDVSGRAFDVSVSRLKRARRLTMRIDTHKQLVKISAPLHVESSTIRAFLARNQNWLEQQVEKR | 0.199
29 | HMEHLTATERHLVAYLEAHLGQVPSLSITKLSQEANVSTASIVRTMKKLGYDGFTAFKHAIKQQLR | 0.156
30 | HMEHTPHGVALLRTLMDQYGLKAADLANELGSKSNVSNILNGRRALTVSHIKMLAERFNLPADAFI | -0.137
31 | HMEIALNDKQILLFSNKLVHEPSFASKYSKVGESYDDFAIRISENLTIPDKVQEYLPYLEKVGFNI | -0.191
32 | HMEIDDPWLILGINAGSSIEIAQKAWKDLASQNHPDKLIANGVPKELLGMANEKLAIINGAYDKILKAHKI | -0.792
33 | HMEIETPEIRAIHDLLELLANKAKKPEQEQFVQAHPEVQWAKVEANKNGTFAVGKVKAYLKTLQA | -0.568
34 | HMEIGNVIAKLRVSNGLNQREFAKKLEVSNGAVAMWETNKRQPDLEMIKKISNLFDVPTDYILGAGTFQ | 0.152
35 | HMEIIFVEHKVRPGESVWLIARKYKVKKNHILAVNNLSEKSIIRPKQILKIPTSGYDQYKKSVE | -0.495
36 | HMEIIMIVITKPSITDERIAEIVAVIERNGGVQAHVSKGTDRTVIGIIGKAEPTLAEHLRQMKGVENVIKI | -0.327
37 | HMEIPMRDKLKTYIDYLFAGAPQTAATAETKAEILQNTLDKYDDLIAEGKTPEAAYSLAVSGIGDLGDF | -0.339
38 | HMEIPTEEILKQKLYYSISEVASWFKVNTSLLRYWENEFDILQPRKTRKGDRLFRVEDIKNLQLIYLL | -0.122
39 | HMEITGKYKAKEDIKLKVIPLISSLDLQDIKQNTELEVKDTMNNWAYVTVQEKQGWVVLEKIEKVE | -1.07
40 | HMEITTLTGVLGAGRLDSALAAALPQYSRARIQALISDAALRINGQVVADAGSKKMSGQTFELNIPAPVP | 0.0449
41 | HMEKDEYIFVDIDGAVFNPGVYKLIAGSRVIDAINLAGGLKEKAFTQNLNKARKLVDGEKIYIYLEGDEE | -1.23
42 | HMEKDRDKRIRKRVLTALKRNDKKMTDKAFALLTSRIRDESILDQEVLKLIGYVGDRTTIDSKDINIVVAE | 0.0457
43 | HMEKEEELNSIRPDLDGNDIMEILGVPAGPKVGKAYNYLLNVRLDEGPLSRAEAISRLEAWWENQ | -1.22
44 | HMEKELVSDFASRISTARSSKGWNHAELGKRMAETVNVIKSAESGKPPTDSVVKKLERVLGITLMEV | -0.218
45 | HMEKEYMKNVVGMEYRQARVLLGDMGLELAFQPVYETSDKYPTDVVVSTEPAADQPLTKGQTVILHIST | 0.299
46 | HMEKGNEEALEQAREAILAVQSGEKYVDLDPANAAIRRKQHALAQASDLVSQSYGKDPNRYVRIFR | 0.367

Row | Sequence | soluble fraction (log2)
47 | HMEKINLLVENNDNYRLDKIIALNMEELSRTQIQEMIGQGLVLVNGKVEKASYKTKLNDQIEITIED | -0.409
48 | HMEKKKVPEVAGQDEAAARNVMTNSGFVVDVEQKEDDNVPAGKVITTAPAGGVEVVEGTKIILYVSKGSN | 0.0237
49 | HMEKKPYGEMHNVMLTDEELEKLRHDYPAHFAEYIQRLSLHIDAKGARYKSHYAVIRKWLIADGVKA | 0.0221
50 | HMEKLIRIKRLIKQLNEYRDSYYNEARPVVSDAAYDKLFDELSELEKETGVVYANSPTQTVG | -0.457
51 | HMEKPTEITLSNRVSVQELAEKMYVSETDIIRTLFLDGRIININQVLDIDTAIRVGEQLGIKIKII | -1.49
52 | HMEKPTRNKLVEIIIQNKNVTTEQMANLLNISRRAVAKHIKKLQEEGIIRRIGPDFGGHWEIVK | 0.225
53 | HMEKPYTPPANLNEIQSYEELSKAVQYYNKVKDAATTDADRLKAQQSIDTLEDMRKAWDAASST | -0.312
54 | HMEKSLSAQVYEKIKAGIISLKYPPGSVLKERELSESLGVSRTPVREAIQRLSQESWLVPGEGKRMQVRP | ≥ 0.43
55 | HMEKTLAERVNDILAEIKMTKQELAMQLNISRSAVSQYLNGKYSSNPEAIEARLRDFVSSYDRG | -0.243
56 | HMEKYIVEAEEQGKRLDMYISSKDEELTRTSAQRLIEQGDILVNNKKVKVAYKVSEGDIIAVEKQ | 0.00594
57 | HMELDLPLEELGLSTRVLHSLKEEGIESVRALLALNLKDLKNIPGIGERSLEEIKEALEKKGFTLK | -0.423
58 | HMELEENTERVLNILIENDIISENDIAEKLEVKINGARKALYKLKEVGFVEYTKERDEEKKWWYIYFWKLN | -0.36
59 | HMELEKIRPDLDGLEIMAILGISPSPIVGRAYQYLLDLRMDRGPLGPDAAKAELLNWWSLNQPK | -1.62
60 | HMELGRQDSAQLGRWAAGILAKNGKKITGRTMEFFLSRTGDDMENISSELEKLISYTLGREVITEEDIEAV | -0.757
61 | HMELGWYVRLRRRELGLSVTALAEKAGMSQSYLSQIETGDRGNPSPESLRSLAEALEVSPRELESLV | 0.286
62 | HMELMKPPGYWQSLENAIYESKKVIKEHGFDTLPSSNKLRELDYHGLSRAISVHHSGFPNFREIMNQELGI | -0.0528
63 | HMELNDEELIKGIQELLTKIGYDPGEINGVLGIKTSSAISAFQQSRNKAITGEADLDLLVQLQIELRKITT | -1.32
64 | HMELNGVSETAKSVYSIILNNSSTVDDIVIKTKLPAAKVMQALTELELNDAVERKSGGVYALP | -0.0324
65 | HMELPADLATVLSVDDIRAIALAEVPGSTITGVELEREEGVLVYKVKFNDGSYKLYDANTGELV | -0.238
66 | HMELPPLEPIDRILVVQQPINIREQPGVLAKKIGRVSSGETLTILAKVSGQDWYFVETDNGGRGYVFKRV | -0.222
67 | HMELQYSQEIEEAQKILENLGLYRGEIDGINGINTKSAIREFQRKSGLVVDGILGPNTTNALSKGSDAYIT | 0.0515
68 | HMELVQIIGNNIRDLMTTRSVTITDLANYLNVSRQTLQNYLRGSNIIDSVKLVAVSDFFDVPVESLLQSK | -0.783
69 | HMEMGNKIKELRTKLGITQEELSKTLNVSSQAVSKWENGGLPDLELIPEIAKYFNVTTDYLFDIK | -0.723
